The target in the assay is myc-tagged human Patched-1 (Ptch1-1B-myc) (human) (UniProt Q13635). Put plainly: co-IP.

This is an account of results in publication doi:10.1101/2020.03.03.974444.

Sequence of UniProt Q13635 (Q13635 whole entry): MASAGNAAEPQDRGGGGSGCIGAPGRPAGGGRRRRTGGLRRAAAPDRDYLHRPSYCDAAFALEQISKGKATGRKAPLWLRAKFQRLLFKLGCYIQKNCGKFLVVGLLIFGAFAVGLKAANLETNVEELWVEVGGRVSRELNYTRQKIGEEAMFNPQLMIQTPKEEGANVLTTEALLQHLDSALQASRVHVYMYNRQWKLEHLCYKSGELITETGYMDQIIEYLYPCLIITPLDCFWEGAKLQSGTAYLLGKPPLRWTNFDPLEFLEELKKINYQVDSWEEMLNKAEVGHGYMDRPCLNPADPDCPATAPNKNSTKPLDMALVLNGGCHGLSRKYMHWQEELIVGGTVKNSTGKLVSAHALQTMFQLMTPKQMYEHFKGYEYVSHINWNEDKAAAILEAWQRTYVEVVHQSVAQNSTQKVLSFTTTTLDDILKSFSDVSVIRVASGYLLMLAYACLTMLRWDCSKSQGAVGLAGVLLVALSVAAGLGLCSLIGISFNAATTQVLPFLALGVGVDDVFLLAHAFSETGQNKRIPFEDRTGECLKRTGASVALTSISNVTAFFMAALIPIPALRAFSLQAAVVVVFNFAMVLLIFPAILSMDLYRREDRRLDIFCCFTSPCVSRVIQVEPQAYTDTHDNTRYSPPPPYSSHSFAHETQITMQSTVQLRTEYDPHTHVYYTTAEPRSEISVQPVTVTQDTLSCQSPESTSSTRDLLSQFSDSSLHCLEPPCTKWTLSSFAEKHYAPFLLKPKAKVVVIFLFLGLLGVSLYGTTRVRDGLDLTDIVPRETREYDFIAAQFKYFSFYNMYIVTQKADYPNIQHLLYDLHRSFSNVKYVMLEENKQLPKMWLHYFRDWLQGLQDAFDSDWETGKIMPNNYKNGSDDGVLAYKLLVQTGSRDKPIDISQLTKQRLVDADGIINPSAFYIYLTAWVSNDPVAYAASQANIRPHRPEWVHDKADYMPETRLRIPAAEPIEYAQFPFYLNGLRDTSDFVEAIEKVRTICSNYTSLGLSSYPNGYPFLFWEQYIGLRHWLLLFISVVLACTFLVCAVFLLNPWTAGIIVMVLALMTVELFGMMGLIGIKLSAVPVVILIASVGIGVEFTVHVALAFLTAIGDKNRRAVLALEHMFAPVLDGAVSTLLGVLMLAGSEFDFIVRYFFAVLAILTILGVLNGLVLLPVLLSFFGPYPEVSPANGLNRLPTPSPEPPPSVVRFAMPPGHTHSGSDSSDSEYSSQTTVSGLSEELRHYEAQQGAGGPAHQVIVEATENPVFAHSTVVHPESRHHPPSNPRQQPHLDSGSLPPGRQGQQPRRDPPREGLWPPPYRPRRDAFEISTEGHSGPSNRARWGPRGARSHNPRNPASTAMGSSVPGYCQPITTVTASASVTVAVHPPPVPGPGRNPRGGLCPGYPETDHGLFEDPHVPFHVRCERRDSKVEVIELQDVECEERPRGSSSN

The substance “N-terminal Sonic Hedgehog (N-Shh) (from UniProt Q62226 25-437) (domain or fragment)” displayed a percent reduction of FL-Dhh binding to Ptch1 of 70 to 80%.
